Measurements as given in US20250129140A1 (ICAHN SCHOOL OF MEDICINE AT MOUNT SINAI, published 2025).

Assays:
[1] = target: T1, gH/gL of HCMV strain TB40/E (on virus) (human cytomegalovirus (strain TB40/E)); test: cell-based or functional assay
[2] = target: T2, gH/gL of HCMV strain AD169 (on virus AD169 and on reporter virus AD169R) (human cytomegalovirus (strain AD169), UniProt P12824 24-743; P16832 31-278); test: cell-based or functional assay
[3] = target: T2, gH/gL of HCMV strain AD169 (on virus …); test: cell-based or functional assay; remark: listed apart in the source
[4] = target: T1, gH/gL of HCMV strain TB40/E (on virus); test: cell-based or functional assay; remark: listed apart in the source
[5] = target: gH/gL of HCMV strain TR (on virus) (human cytomegalovirus (strain TR)); test: cell-based or functional assay
[6] = target: T2, gH/gL of HCMV strain AD169 (on virus …); test: cell-based or functional assay; remark: listed apart in the source
[7] = target: gH/gL of HCMV strain Towne (on virus) (human cytomegalovirus (strain Towne), UniProt P17176 30-742); test: cell-based or functional assay
Sequence of gH/gL of HCMV strain Towne (on virus) (P17176 30-742): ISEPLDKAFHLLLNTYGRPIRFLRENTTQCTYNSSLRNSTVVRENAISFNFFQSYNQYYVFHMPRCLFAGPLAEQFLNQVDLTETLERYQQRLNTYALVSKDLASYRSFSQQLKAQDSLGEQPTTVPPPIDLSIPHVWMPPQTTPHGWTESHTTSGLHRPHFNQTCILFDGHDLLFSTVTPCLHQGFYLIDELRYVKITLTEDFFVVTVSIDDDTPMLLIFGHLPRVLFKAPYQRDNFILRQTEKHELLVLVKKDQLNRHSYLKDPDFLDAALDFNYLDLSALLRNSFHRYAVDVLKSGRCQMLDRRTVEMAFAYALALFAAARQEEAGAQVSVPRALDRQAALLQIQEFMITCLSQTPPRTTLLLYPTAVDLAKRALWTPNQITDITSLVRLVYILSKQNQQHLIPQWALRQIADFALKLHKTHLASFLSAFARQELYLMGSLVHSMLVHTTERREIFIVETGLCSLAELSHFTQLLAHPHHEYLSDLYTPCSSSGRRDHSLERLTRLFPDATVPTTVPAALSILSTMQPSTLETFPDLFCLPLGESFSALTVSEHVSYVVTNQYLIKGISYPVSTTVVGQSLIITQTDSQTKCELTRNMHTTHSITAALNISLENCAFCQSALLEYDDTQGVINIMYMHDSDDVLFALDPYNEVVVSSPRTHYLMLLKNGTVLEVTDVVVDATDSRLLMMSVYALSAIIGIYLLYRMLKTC

[8] = target: T2, gH/gL of HCMV strain AD169 (on virus …); test: flow cytometry on ARPE-19 cells infected with AD169R (GFP reporter), 6 dpi, antibody 2 µg/mL, anti-mouse AF647 secondary
[9] = target: T3, recombinant HCMV pentamer (strain VR1814) consisting of gH, gL, UL128, UL130 and UL131A (human cytomegalovirus (strain VR1814)); test: BLI (Octet RED); antibody captured on anti-mouse Fc (AMC) biosensor, recombinant pentamer 100 µg/mL in solution; 1:1 model
T3 construct: also called recombinant pentamer; Native Antigen CMV-PENT-100

[10] = target: T1, gH/gL of HCMV strain TB40/E (on virus); test: cell-based or functional assay; remark: listed apart in the source
[11] = target: T2, gH/gL of HCMV strain AD169 (on virus …); test: cell-based or functional assay; remark: listed apart in the source
[12] = target: gH/gL of HCMV strain AD169 (on virus AD169 and on reporter virus AD169R) (human cytomegalovirus (strain AD169), UniProt P12824 24-743; P16832 31-278); test: flow cytometry on ARPE-19 cells infected with AD169R (GFP reporter), 6 dpi, antibody 2 µg/mL, anti-mouse AF647 secondary; remark: listed apart in the source

| Binder | IC50(ARPE-19) TB40/E, virus neutralization [1] | IC50(HTR-svNeo) TB40/E, virus neutralization [1] | IC50(ARPE-19) AD169R, virus neutralization [2] | IC50(HTR-svNeo) AD169R, virus neutralization [2] | neutralization of BADrUL131-C4 infection at the highest concentrations [3] | IC50(MRC5/NHDF) TB40/E, virus neutralization [4] | IC50(MRC5/NHDF) TR, virus neutralization [5] | IC50(MRC5/NHDF) AD169, virus neutralization [6] | IC50(MRC5/NHDF) AD169R, virus neutralization [6] | IC50(MRC5/NHDF) Towne, virus neutralization [7] | Q2, percent of cells GFP+ and Alexa Fluor 647+ [8] | Kd [9] | koff [9] | kon [9] | IC50(THP-1) TB40/E, virus neutralization [10] | IC50(THP-1) AD169R, virus neutralization [11] | IC50 of infection, AD169R neutralization (murine constant regions) [3] | Q2, percent of cells GFP+ and Alexa Fluor 647+ [12] |
| --- | --- | --- | --- | --- | --- | --- | --- | --- | --- | --- | --- | --- | --- | --- | --- | --- | --- | --- |
| 13G1 (antibody, V domains shown, also called 13G1 (ms); anti-gH mAb 13G1) VH: QVTLKESGPVLVKPTETLTLTCTVSGFSLYNARMGVTWIRQPPGKALEWLAHIFSNDERSYTSSLKNRLTISKDTSKSQVVLTMTNMDPVDTATYYCARIDYSNYIGNWFDPWGQGTLVTVSS VL: DIQMTQSPSSLSASVGDRVTITCRASQSISNYLNWYQQKPGKAPKLLIYAASSLQGGVPSRFSGSGSGTDFTLTISSLQPEDFTTYYCQQSYSTPFTFGGGTKVEIK | 1.01 µg/mL | 1.12 µg/mL | 1.03 µg/mL | 1.82 µg/mL | > 90% | 0.89 µg/mL | 3.26 µg/mL | 15.9 µg/mL | 0.58 µg/mL | 1.09 µg/mL | 0.89% | 5.05 nM | 6.51e-05 s⁻¹ | 12900 M⁻¹ s⁻¹ | 0.02 µg/mL | 0.03 µg/mL | – | – |
| 15G11 (antibody, V domains shown, also called 15G11 (ms); anti-gH mAb 15G11) VH: QVQLQESGPGLVKPSQTLSLTCTVSGGSISSGYYYWNWIRQHPGKGLECIGYIYYSGTTYYNPSLKSRLFISVDTSKNQFSLKLRSVTAADTAVYYCARGGLGAFDIWGQGTMVTVSS VL: EIVLTQSPGTLSLSPGERATLSCRASQSVSSSYLAWYQQKPGQAPRLLIYGASSRAPGIPDRFSGTGSGTDFTLTISRLEPEDFAVYYCQQYGISPLTFGGGTKVEIK | 0.09 µg/mL | 0.41 µg/mL | 0.24 µg/mL | 0.44 µg/mL | > 90% | 0.5 µg/mL | 3.51 µg/mL | 0.31 µg/mL | 0.51 µg/mL | 0.87 µg/mL | 0.4% | 2.28 nM | 8.69e-05 s⁻¹ | 38200 M⁻¹ s⁻¹ | 0.39 µg/mL | 0.01 µg/mL | 0.17 µg/mL | – |
| 14E1 (antibody, V domains shown, also called 14E1 (ms)) VH: QVQLVQSGAEVKKPGASVKVSCKASGYTFTSYSISWVRQAPGQGLEWMGWINTYNGNTNYAQRVQARVTMTTDTSTSTAYMELRSLRSDDTAVYYCARDHGFFFDYWGQGNLVTVSS VL: DIQLTQSPSFLSASVGDRVTITCWASQGISSYLAWYQQKPGKAPKLLIYAASTLQSGVPSRFSGSGSGTEFTLTISSLQPEDFATYYCQQLNSYPYTFGQGTQLEIK | 3.06 µg/mL | > 50 µg/mL | 0.11 µg/mL | 19.2 µg/mL | – | 0.89 µg/mL | > 50 µg/mL | 0.91 µg/mL | 1.78 µg/mL | > 50 µg/mL | 3.68% | 64.6 nM | 0.00158 s⁻¹ | 24400 M⁻¹ s⁻¹ | – | 0.02 µg/mL | – | – |
| 5C3 (antibody, V domains shown) VH: QVQLQQPGAELVRPGASVKLSCKASGYTFTTYWMNWVKQRPGQGLEWIGMIDPSDSETHYNQMFKDKATLTVDTSSSTAYMQLSSLTSEDSAVYYCARGRSWFVYWGQGTLVTVSS VL: DIVLTQSPASLAVSLGQRATISCRASKSVSSSGYSYVHWYQQKPGQPPKLLIYLASNLESGVPARFSGSGSGTDFTLNIHSVEEEDAATYYCQHNRELPYTFGGGTKLEIKR | – | – | – | – | – | – | – | – | – | – | – | – | – | – | – | – | – | 3.37% |
| 9A12 (antibody, V domains shown, also called 9A12 (ms); anti-gH mAb 9A12) VH: EVQLVESGGVLVQPGGSLRLSCAASGFTFSSHEMNWVRQAPGKGLEWISYISSTGSTIYDADSVKGRFTISRDNAKNSLYLQMNSLRAEDTAVYYCARSSGWYRNYSYGMDVWGQGTTVTVSS VL: DIQMAQSPSSLSASVGDRVTITCRASQGIYNYLAWFQQKPGKAPKSLIYAASSLQTGVPSKFSGSGSGTDFTLTISNLQPEDFATYYCQQYNSFPRTFGQGTKVEIK | 1.1 µg/mL | 0.72 µg/mL | 1.28 µg/mL | ~1.8 µg/mL | > 90% | 1.09 µg/mL | 6.96 µg/mL | 0.77 µg/mL | 1.52 µg/mL | 2.53 µg/mL | – | 3.47 nM | 8.6e-05 s⁻¹ | 24800 M⁻¹ s⁻¹ | – | 0.08 µg/mL | – | – |
